Source: patent US20130071366A1 (CANCER RESEARCH TECHNOLOGY, published 2013)
Where a chain is given by its changes, count along the chain named. Numbers in names are those of the source.

B1: IGF2R domain 11, wild type, expressed in Pichia pastoris with C-terminal His6 tag (receptor)
chain: NEHDDCQVTNPSTGHLFDLSSLSGRAGFTAAYSEKGLVYMSICGENENCPPGVGACFGQTRISVGKANKRLRYVDQVLQLVYKDGSPCPSKSGLSYKSVISFVCRPEAGPTNRPMLISLDKQTCTLFFSWHTPLACEQATHHHHHH
notes: Alpha-factor signal is cleaved during secretion; soluble 17 kDa protein; also called WT; wild type domain 11
B2: IGF2R domain 11 E1544A (receptor)
chain: B1 chain with E34A
notes: Secreted from Pichia pastoris
B3: IGF2R domain 11 E1544K (enhanced mutant) (receptor)
chain: B1 chain with E34K
notes: Secreted from Pichia pastoris
B4: IGF2R domain 11 E1544V (receptor)
chain: B1 chain with E34V
notes: Secreted from Pichia pastoris
B5: IGF2R domain 11 Y1542A (receptor)
chain: B1 chain with Y32A
notes: Secreted from Pichia pastoris
B6: IGF2R domain 11 K1545A (receptor)
chain: B1 chain with K35A
notes: Secreted from Pichia pastoris
B7: IGF2R domain 11 Q1569A (receptor)
chain: B1 chain with Q59A
notes: Secreted from Pichia pastoris
B8: IGF2R domain 11 T1570A (receptor)
chain: B1 chain with T60A
notes: Secreted from Pichia pastoris
B9: IGF2R domain 11 S1543A (receptor)
chain: B1 chain with S33A
notes: Secreted from Pichia pastoris
B10: IGF2R domain 11 S1596A (receptor)
chain: B1 chain with S86A
notes: Secreted from Pichia pastoris
B11: IGF2R domain 11 G1619R (common human polymorphism) (receptor)
chain: B1 chain with G109R
notes: Secreted from Pichia pastoris
B12: IGF2R domain 11 I1572A (null mutant) (receptor)
chain: B1 chain with I62A
notes: Secreted from Pichia pastoris
B13: Fc-tagged enhanced mutant IGF2R domain 11 (11^E1544K-Fc) (Fc fusion)
chain: NEHDDCQVTNPSTGHLFDLSSLSGRAGFTAAYSKKGLVYMSICGENENCPPGVGACFGQTRISVGKANKRLRYVDQVLQLVYKDGSPCPSKSGLSYKSVISFVCRPEAGPTNRPMLISLDKQTCTLFFSWHTPLACEQAT
modifications: N-glycosylated with Man3GlcNAc2 (Drosophila cells)
notes: Homodimer, secreted from Drosophila D.Mel-2 cells; not shown: human IgG1 Fc domain, amplified from IMAGE clone 4851063 (ATCC-6878978)
B14: IGF2R domain 11 with Q at position 1544 (receptor)
chain: B1 chain with E34Q
notes: Secreted from Pichia pastoris; also called E1544Q
B15: IGF2R domain 11 with Y at position 1544 (receptor)
chain: B1 chain with E34Y
notes: Secreted from Pichia pastoris; also called E1544Y
B16: IGF2R domain 11 with D at position 1544 (receptor)
chain: B1 chain with E34D
notes: Secreted from Pichia pastoris; also called E1544D
B17: IGF2R domain 11 with H at position 1544 (receptor)
chain: B1 chain with E34H
notes: Secreted from Pichia pastoris; also called E1544H
B18: IGF2R domain 11 with N at position 1544 (receptor)
chain: B1 chain with E34N
notes: Secreted from Pichia pastoris; also called E1544N
B19: IGF2R domain 11 with T at position 1544 (receptor)
chain: B1 chain with E34T
notes: Secreted from Pichia pastoris; also called E1544T
B20: IGF2R domain 11 with L at position 1544 (receptor)
chain: B1 chain with E34L
notes: Secreted from Pichia pastoris; also called E1544L
B21: IGF2R domain 11 with G at position 1544 (receptor)
chain: B1 chain with E34G
notes: Secreted from Pichia pastoris; also called E1544G
B22: IGF2R domain 11 with S at position 1544 (receptor)
chain: B1 chain with E34S
notes: Secreted from Pichia pastoris; also called E1544S
B23: IGF2R domain 11 with I at position 1544 (receptor)
chain: B1 chain with E34I
notes: Secreted from Pichia pastoris; also called E1544I
B24: IGF2R domain 11 with M at position 1544 (receptor)
chain: B1 chain with E34M
notes: Secreted from Pichia pastoris; also called E1544M
B25: IGF2R domain 11 with W at position 1544 (receptor)
chain: B1 chain with E34W
notes: Secreted from Pichia pastoris; also called E1544W
B26: IGF2R domain 11 with R at position 1544 (receptor)
chain: B1 chain with E34R
notes: Secreted from Pichia pastoris; also called E1544R
B27: IGF2R domain 11 with F at position 1544 (receptor)
chain: B1 chain with E34F
notes: Secreted from Pichia pastoris; also called E1544F
B28: IGF2R domain 11 with P at position 1544 (receptor)
chain: B1 chain with E34P
notes: Secreted from Pichia pastoris; also called E1544P

Target: T1, Insulin-like Growth Factor II (IGF-II), recombinant human (human, UniProt P01344 25-91, biotinyl group (site not stated) when immobilised for SPR; not biotinylated as SPR analyte or in ITC)
T1 construct: mature; Bought as Biotinyl-IGF-II from GroPep for immobilisation on streptavidin chips; also called IGF2; Biotinyl-IGF-II
Test: SPR, steady-state KD relative to wild type domain 11
Procedure: (§1) Kinetic analysis by Surface Plasmon Resonance (SPR) was conducted on a BIAcore 3000 biosensor (BIAcore, Uppsala, Sweden) at 25° C. in HBS-EP (10 mM HEPES, pH 7.4, 150 mM NaCl, 3 mM EDTA, 0.005% surfactant P20) at a flow rate of 40 μl/min. […] Kinetic experiments consisted of a two minute injection of analyte followed by a 100s dissociation phase in running buffer, after which the binding surface was regenerated with a 2 minute injection of 2 M MgCl₂. A blank flow cell was used for in-line reference subtraction of changes due to differences in refractive index of running buffer versus sample and a buffer-only injection was used to subtract instrument noise and drift. Injections were performed in duplicate for each concentration and in a randomised order. Kinetic parameters were determined by global fitting of sensorgrams to a two-state (conformational change) binding model using BIAevaluation software version 4.0.1. In all cases the minor component made an insignificant contribution to the overall affinity and as such only the kinetic parameters of the major binding component were used. For each interaction the dissociation affinity constant (KD) was also calculated by fitting of the response of each concentration at equilibrium to a steady-state affinity model using BIAevaluation.

T1 sequence (P01344 25-91): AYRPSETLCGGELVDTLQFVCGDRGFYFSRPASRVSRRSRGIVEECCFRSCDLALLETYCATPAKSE

Binder | Relative Affinity
B1 | 1 fold vs wild type domain 11
B2 | 2.79 fold vs wild type domain 11
B3 | 6.12 fold vs wild type domain 11
B4 | 1.96 fold vs wild type domain 11

Target: T1, Insulin-like Growth Factor II (IGF-II), …
Test: as above
Remark: another data set of the same source
Procedure: […]. Values are the mean±S.E.M. of three separate experiments.
as §1, with “BIAevaluation. In order to investigate the influence of ionic strength, kinetic experiments were conducted in HBS-EP running buffers containing the desired NaCl concentration. In each case, analyte samples were made up in the appropriate running buffer prior to injection.” for “BIAevaluation.”
Following purification, the binding of each mutant construct to IGF2 was assessed by SPR and compared to the wild type domain 11.

Binder | Relative Affinity
B1 | 1 fold vs wild type domain 11
B5 | 0.16 fold vs wild type domain 11
B2 | 2.79 fold vs wild type domain 11
B6 | 0.36 fold vs wild type domain 11
B7 | 0.8 fold vs wild type domain 11
B8 | 0.11 fold vs wild type domain 11
B9 | 0.39 fold vs wild type domain 11
B10 | 0.61 fold vs wild type domain 11
B11 | 0.9 fold vs wild type domain 11

Target: T1, Insulin-like Growth Factor II (IGF-II), …
Test: SPR, biotinylated IGF-II on a streptavidin chip, domain 11 protein injected as analyte at 16384 to 32 nM
Procedure: The polymorphism G1619R (l) has an apparent wild type interaction and the E1544A (d) mutation has a modest positive affect on IGF-II binding.
as §1, with “In all cases the minor component made an insignificant contribution to the overall affinity and as such only the kinetic parameters of the major binding component were used.” left out, “BIAevaluation. […]” for “BIAevaluation.”
Following purification, the binding of each mutant construct to IGF2 was assessed by SPR and compared to the wild type domain 11. […]

Binder | binding result
B12 | no binding (tested: 16384 nM)

Target: T1, Insulin-like Growth Factor II (IGF-II), …
Test: SPR, biotinyl-IGF-II immobilised, bivalent analyte model
From the text: (§2) The affinity of versions of Fc-tagged domain 11 fusion proteins, and domain 11 constructs, for IGF-II were compared using surface plasmon resonance (BIAcore 3000). Attempts were made to immobilize Fc-tagged domain 11 proteins upon a sensor chip surface (CM5 and CM5-proteinA) but we encountered similar problems as described above with immobilised monomeric domain 11. Instead, immobilisation of biotinylated IGF-I and IGF-II on separate flow cells of a streptavidin coated sensor chip (BIAcore) generated reproducible sensorgram profiles when Fc-tagged and untagged domain 11 proteins were passed over the surface as analytes. The Fc-tagged domain 11 kinetic data performed in triplicate generated sensorgrams that were analyzed using a bivalent analyte model. […] Both Fc-tagged proteins appeared to have reduced off-rates compared to the untagged monomers.

Binder | molar affinity relative to 11-Fc [fold vs 11-Fc]
B13 | ~2

Target: T1, Insulin-like Growth Factor II (IGF-II), …
Test: ITC
Procedure: Calorimetric measurements were performed using a VP-ITC microcalorimeter (MicroCal). All solutions were thoroughly degassed before use by stirring under vacuum. […] The sample cell contained either wild type domain 11 (7 uM) or the E1544A mutant (8 μM), also in HBS-E buffer. To correct for the heat effects of dilution and mixing, reaction heats obtained from a control experiment, in which IGF2 was injected into HBS-E, were subtracted. calorimetric data were analysed using MicroCal ORIGIN software (version 5.0) supplied with the instrument. Thermodynamic parameters were derived by fitting the binding isotherms to a single-site binding model. Values for dissociation affinity constants (KD) were determined from duplicate experiments.
In order to validate the SPR sensorgram data, ITC was used to assess the binding affinity between domain 11 and IGF-II. The affinity of the E1544A mutant was also assessed by ITC in order to confirm whether use of a second technique agreed as to the apparent increase in affinity (FIG. 6 and Table 6). Titrations were performed using […] injections of 40 μM IGF-II (after an initial 7.5 μl injection) into the reaction cell containing wild type domain 11 or the E1544A mutant. […] The two fold differences may be simply accounted for by the fidelity of both techniques.

Binder | relative affinity increase over wild type by ITC
B2 | ~2 fold vs wild type domain 11

Target: T1, Insulin-like Growth Factor II (IGF-II), …
Test: SPR, steady-state KD relative to wild type domain 11
Remark: another data set of the same source

Binder | Relative Affinity
B1 | 1 fold vs wild type domain 11
B14 | 3.87 fold vs wild type domain 11
B2 | 2.79 fold vs wild type domain 11
B15 | 1.8 fold vs wild type domain 11
B16 | 0.48 fold vs wild type domain 11
B3 | 6.12 fold vs wild type domain 11
B17 | 3.07 fold vs wild type domain 11
B4 | 1.96 fold vs wild type domain 11
B18 | 0.88 fold vs wild type domain 11
B19 | 1.72 fold vs wild type domain 11
B20 | 2.02 fold vs wild type domain 11
B21 | 0.57 fold vs wild type domain 11
B22 | 5.24 fold vs wild type domain 11
B23 | 2.43 fold vs wild type domain 11
B24 | 2.75 fold vs wild type domain 11
B25 | 1.94 fold vs wild type domain 11
B26 | 7.33 fold vs wild type domain 11
B27 | 1.83 fold vs wild type domain 11
B28 | 0.49 fold vs wild type domain 11

Target: T1, Insulin-like Growth Factor II (IGF-II), …
Test: SPR, biotinyl-IGF-II immobilised
From the text: as §2

Binder | RU response relative to 11-Fc at equal concentrations [fold vs 11-Fc]
B13 | ~2
